PMC8304084, “A Concerted Action of UBA5 C-Terminal Unstructured Regions Is Important for Transfer of Activated UFM1 to UFC1” (International Journal of Molecular Sciences, 2021)
Where two headings read alike, the source gives them in different places.

What was measured:
[1] = target: Full length UFC1, residues 1–167 (UniProt Q9Y3C8); test: ITC; VP-ITC, 25 °C; UBA5 peptides (~400 µM) titrated into 20–25 µM binding partner; 25 mM HEPES pH 7.5, 100 mM NaCl; one-site model; a single profile for each interaction
[2] = target: Full length UFC1, residues 1–167 (UniProt Q9Y3C8); test: as above; remark: listed apart in the source

GAMEDSGESLEDLMAKMKNM [UBA5 C-terminal region R3, residues 388–404]
Kd [1]: > 11 µM
Ka [2]: 30000 M⁻¹
Kd [2]: 10 µM
dH [2]: -4.99 kcal/mol
stoichiometry N [2]: 0.95
